This note sets out measurements from patent publication US20090010925 (published 2009).

Broadly, the Kd is the concentration at which binding is half-saturated. Low readings indicate a tighter complex, high ones a looser complex.

The chains are these.
T1: VEGF(8-109) (human, UniProt P15692)
T1 chain: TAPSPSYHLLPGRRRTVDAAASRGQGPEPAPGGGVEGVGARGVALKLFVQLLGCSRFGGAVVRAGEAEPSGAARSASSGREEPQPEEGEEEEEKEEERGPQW

B1: Y0313-2 (antibody, V domains shown)
VH: EVQLVESGGGLVQPGGSLRLSCAASGYDFTHYGMNWVRQAPGKGLEWVGWINTYTGEPTYAADFKRRFTFSLDTSKSTAYLQMNSLRAEDTAVYYCAKYPHYYVNERKSHWYFDVWGQGTL
VL: DIQLTQSPSSLSASVGDRVTITCRANEQLSNYLNWYQQKPGKAPKVLIYFTSSLHSGVPSRFSGSGSGTDFTLTISSLQPEDFATYYCQQYSTVPWTFGQGTKVEIKR
B2: Y0242-1 (antibody, V domains shown)
VH: EVQLVESGGGLVQPGGSLRLSCAASGYTFTNYGMNWVRQAPGKGLEWVGWINTWTGEPTYAADFKRRFTFSLDTSKSTAYLQMNSLRAEDTAVYYCAKYPHYYGSSHWYFDVWGQGTL
VL: DIQLTQSPSSLSASVGDRVTITCRANEQLSNYLNWYQQKPGKAPKVLIYFTSSLHSGVPSRFSGSGSGTDFTLTISSLQPEDFATYYCQQYSTVPWTFGQGTKVEIKR
B3: Y0261-6 (antibody, V domains shown)
VH: EVQLVESGGGLVQPGGSLRLSCAASGYTFTNYGMNWVRQAPGKGLEWVGWINTYTGEPTYAADFKRRFTFSLDTSKSTAYLQMNSLRAEDTAVYYCAKYPHYYLKDKKSHWYFDVWGQGTL
VL: DIQLTQSPSSLSASVGDRVTITCRANEQLSNYLNWYQQKPGKAPKVLIYFTSSLHSGVPSRFSGSGSGTDFTLTISSLQPEDFATYYCQQYSTVPWTFGQGTKVEIKR
B4: Y0240-1 (antibody, V domains shown)
VH: EVQLVESGGGLVQPGGSLRLSCAASGYTFTNYGMNWVRQAPGKGLEWVGWINTYTGEPTYAADFKRRFTFSLDTSKSTAYLQMNSLRAEDTAVYYCAKYPHYYLTDHKSHWYFDVWGQGTL
VL: DIQLTQSPSSLSASVGDRVTITCRANEQLSNYLNWYQQKPGKAPKVLIYFTSSLHSGVPSRFSGSGSGTDFTLTISSLQPEDFATYYCQQYSTVPWTFGQGTKVEIKR
B5: Y0239-19 (antibody, V domains shown)
VH: EVQLVESGGGLVQPGGSLRLSCAASGYTFTNYGMNWVRQAPGKGLEWVGWINTYTGEPTYAADFKRRFTFSLDTSKSTAYLQMNSLRAEDTAVYYCAKYPHYYVNERKSHWYFDVWGQGTL
VL: DIQLTQSPSSLSASVGDRVTITCRANEQLSNYLNWYQQKPGKAPKVLIYFTSSLHSGVPSRFSGSGSGTDFTLTISSLQPEDFATYYCQQYSTVPWTFGQGTKVEIKR
B6: Y0241-7 (antibody, V domains shown)
VH: EVQLVESGGGLVQPGGSLRLSCAASGYDWTNYGINWVRQAPGKGLEWVGWINTYTGEPTYAADFKRRFTFSLDTSKSTAYLQMNSLRAEDTAVYYCAKYPHYYGSSHWYFDVWGQGTL
VL: DIQLTQSPSSLSASVGDRVTITCRANEQLSNYLNWYQQKPGKAPKVLIYFTSSLHSGVPSRFSGSGSGTDFTLTISSLQPEDFATYYCQQYSTVPWTFGQGTKVEIKR
B7: Y0239-2 (antibody, V domains shown)
VH: EVQLVESGGGLVQPGGSLRLSCAASGYTFTNYGMNWVRQAPGKGLEWVGWINTYTGEPTYAADFKRRFTFSLDTSKSTAYLQMNSLRAEDTAVYYCAKYPHYYKNDKSSHWYFDVWGQGTL
VL: DIQLTQSPSSLSASVGDRVTITCRANEQLSNYLNWYQQKPGKAPKVLIYFTSSLHSGVPSRFSGSGSGTDFTLTISSLQPEDFATYYCQQYSTVPWTFGQGTKVEIKR
B8: Y0239-12 (antibody, V domains shown)
VH: EVQLVESGGGLVQPGGSLRLSCAASGYTFTNYGMNWVRQAPGKGLEWVGWINTYTGEPTYAADFKRRFTFSLDTSKSTAYLQMNSLRAEDTAVYYCAKYPHYYAHEKKSHWYFDVWGQGTL
VL: DIQLTQSPSSLSASVGDRVTITCRANEQLSNYLNWYQQKPGKAPKVLIYFTSSLHSGVPSRFSGSGSGTDFTLTISSLQPEDFATYYCQQYSTVPWTFGQGTKVEIKR
B9: Y0241-6 (antibody, V domains shown)
VH: EVQLVESGGGLVQPGGSLRLSCAASGYDYTNYGINWVRQAPGKGLEWVGWINTYTGEPTYAADFKRRFTFSLDTSKSTAYLQMNSLRAEDTAVYYCAKYPHYYGSSHWYFDVWGQGTL
VL: DIQLTQSPSSLSASVGDRVTITCRANEQLSNYLNWYQQKPGKAPKVLIYFTSSLHSGVPSRFSGSGSGTDFTLTISSLQPEDFATYYCQQYSTVPWTFGQGTKVEIKR

The target in the assay is T1, VEGF(8-109). Kind of assay: SPR, 25C. (SPR reads the build-up and loss of mass on a sensor chip optically.)
Take B1: the Kd was found to be 0.36 nM.

On to B2, for which binding was put at a Kd of 1.8 nM.

Molecule B3 gave a Kd of 0.6 nM.

B4 yielded a dissociation constant Kd of 0.5 nM.

In turn, B5 came in with a Kd of 0.3 nM.

B6: the Kd was 3 nM.

For B7, the Kd came to 4.6 nM.

In the case of B8, the affinity, expressed as Kd, was 0.6 nM.

Molecule B9 yielded a Kd of 2.7 nM.
